Like-named read-outs stand apart in the source and are kept apart here.
How the values were obtained:
NIH3T3 fibroblasts [1] = assay: CV viability assay on non-cancerous fibroblasts; assay type: cell-based, mouse; conditions: at the IC50 determined for PC-3 (7.3 µM), CV and MTT, 72 h
Solubility of dendrimers = conditions: at 20 mg/mL
PC-3 cells [2] = conditions: read-out: IC50, MTT assay, PC-3, 72 h
PC-3 cells [3] = conditions: read-out: IC50, CV assay, PC-3, 72 h
NIH3T3 fibroblasts [4] = conditions: read-out: IC50 NIH3T3, MTT; NIH3T3 mouse fibroblasts, 72 h, MTT assay
[5] = tested on: PC-3 prostate cancer cell line; assay: Viability by CV and MTT assays (fast screening / dose response); assay type: cell-based, human; conditions: 20 µM free chlorambucil, 72 h
PC-3 cells [6] = assay: cells; conditions: Homo sapiens, PC-3, 72 h, read-out: IC50, CV assay, PC-3
PC-3 cells [7] = assay: cells; conditions: Homo sapiens, PC-3, 72 h, read-out: IC50, MTT assay, PC-3

Compound	Solubility (Solubility of dendrimers)	further results
CC(C)C(C(=O)NCCOCCOCCN)N(CCNC(=O)CCN(CCC(=O)NCCN(C(=O)CCCc1ccc(N(CCCl)CCCl)cc1)C(C(=O)NCCOCCOCCN)C(C)C)CCN(CCC(=O)NCCN(C(=O)CCCc1ccc(N(CCCl)CCCl)cc1)C(C(=O)NCCOCCOCCN)C(C)C)CCC(=O)NCCN(C(=O)CCCc1ccc(N(CCCl)CCCl)cc1)C(C(=O)NCCOCCOCCN)C(C)C)C(=O)CCCc1ccc(N(CCCl)CCCl)cc1 (centres unmarked) [Dendrimer 1b]	High	effect on NIH3T3 cell growth (NIH3T3 fibroblasts [1]): did not affect NIH3T3 cell growth at all; IC50 (PC-3 cells [2]): 7.29 ± 1.18 µM; IC50 (PC-3 cells [3]): 3.65 ± 0.56 µM; IC50 (NIH3T3 fibroblasts [4]): 74.4 ± 2.31 µM
O=C(O)CCCc1ccc(N(CCCl)CCCl)cc1 [chlorambucil]	–	activity of free agent on PC-3 cells [5]: almost no activity; IC50 (PC-3 cells [6]): > 100 µM; IC50 (PC-3 cells [7]): > 100 µM
COC(=O)CCCNC(=O)C(C(C)C)N(CCNC(=O)CCN(CCC(=O)NCCN(C(=O)CCCC[C@@H]1SC[C@@H]2NC(=O)N[C@@H]21)C(C(=O)NCCCC(=O)OC)C(C)C)CCN(CCC(=O)NCCN(C(=O)CCCC[C@@H]1SC[C@@H]2NC(=O)N[C@@H]21)C(C(=O)NCCCC(=O)OC)C(C)C)CCC(=O)NCCN(C(=O)CCCc1ccc(N(CCCl)CCCl)cc1)C(C(=O)NCCCC(=O)OC)C(C)C)C(=O)CCCC[C@@H]1SC[C@@H]2NC(=O)N[C@@H]21 (some centres unmarked) [Dendrimer 5a]	Low	–
COC(=O)CCCNC(=O)C(C(C)C)N(CCNC(=O)CCN(CCC(=O)NCCN(C(=O)CCCc1ccc(N(CCCl)CCCl)cc1)C(C(=O)NCCCC(=O)OC)C(C)C)CCN(CCC(=O)NCCN(C(=O)CCCc1ccc(N(CCCl)CCCl)cc1)C(C(=O)NCCCC(=O)OC)C(C)C)CCC(=O)NCCN(C(=O)CCCc1ccc(N(CCCl)CCCl)cc1)C(C(=O)NCCCC(=O)OC)C(C)C)C(=O)CCCC[C@@H]1SC[C@@H]2NC(=O)N[C@@H]21 (some centres unmarked) [Dendrimer 3a]	Low	–
CC(C)C(C(=O)NCCOCCOCCNC(=O)OC(C)(C)C)N(CCNC(=O)CCN(CCC(=O)NCCN(C(=O)CCCc1ccc(N(CCCl)CCCl)cc1)C(C(=O)NCCOCCOCCNC(=O)OC(C)(C)C)C(C)C)CCN(CCC(=O)NCCN(C(=O)CCCc1ccc(N(CCCl)CCCl)cc1)C(C(=O)NCCOCCOCCNC(=O)OC(C)(C)C)C(C)C)CCC(=O)NCCN(C(=O)CCCc1ccc(N(CCCl)CCCl)cc1)C(C(=O)NCCOCCOCCNC(=O)OC(C)(C)C)C(C)C)C(=O)CCCc1ccc(N(CCCl)CCCl)cc1 (centres unmarked) [Dendrimer 1a]	Low	–
CC(C)C(C(=O)NCCCC(=O)O)N(CCNC(=O)CCN(CCC(=O)NCCN(C(=O)CCCC[C@@H]1SC[C@@H]2NC(=O)N[C@@H]21)C(C(=O)NCCCC(=O)O)C(C)C)CCN(CCC(=O)NCCN(C(=O)CCCC[C@@H]1SC[C@@H]2NC(=O)N[C@@H]21)C(C(=O)NCCCC(=O)O)C(C)C)CCC(=O)NCCN(C(=O)CCCc1ccc(N(CCCl)CCCl)cc1)C(C(=O)NCCCC(=O)O)C(C)C)C(=O)CCCC[C@@H]1SC[C@@H]2NC(=O)N[C@@H]21 (some centres unmarked) [Dendrimer 5b]	High	–
CC(C)C(C(=O)NCCCC(=O)O)N(CCNC(=O)CCN(CCC(=O)NCCN(C(=O)CCCc1ccc(N(CCCl)CCCl)cc1)C(C(=O)NCCCC(=O)O)C(C)C)CCN(CCC(=O)NCCN(C(=O)CCCc1ccc(N(CCCl)CCCl)cc1)C(C(=O)NCCCC(=O)O)C(C)C)CCC(=O)NCCN(C(=O)CCCc1ccc(N(CCCl)CCCl)cc1)C(C(=O)NCCCC(=O)O)C(C)C)C(=O)CCCC[C@@H]1SC[C@@H]2NC(=O)N[C@@H]21 (some centres unmarked) [Dendrimer 3b]	High	–
COC(=O)CCCNC(=O)C(C(C)C)N(CCNC(=O)CCN(CCC(=O)NCCN(C(=O)CCCc1ccc(N(CCCl)CCCl)cc1)C(C(=O)NCCCC(=O)OC)C(C)C)CCN(CCC(=O)NCCN(C(=O)CCCc1ccc(N(CCCl)CCCl)cc1)C(C(=O)NCCCC(=O)OC)C(C)C)CCC(=O)NCCN(C(=O)CCCc1ccc(N(CCCl)CCCl)cc1)C(C(=O)NCCCC(=O)OC)C(C)C)C(=O)CCCc1ccc(N(CCCl)CCCl)cc1 (centres unmarked) [Dendrimer 2a]	Low	–
